The values below come from the supplement of paper PMC5998384.

Data set [1] relates to HeLa Kyoto. The experiment in a line: solubility in G1/S (NP-40 vs SDS abundance) (log2 ratio); higher = more soluble. Conditions: cell cycle stage: G1/S.
The test system of data set [2] is HeLa Kyoto. The experiment in a line: melting temperature (median over replicates), in situ; higher = more thermally stable.
The subject of data set [3] is HeLa Kyoto. Put plainly: solubility change mitosis vs G1/S (difference of NP-40 vs SDS log2 ratios) (log2 ratio difference); higher = more soluble in mitosis.
Data set [4] relates to HeLa Kyoto. Put plainly: thermal stability score vs G1/S (z-score of summed log2 fold changes over temperatures); higher = more thermally stable than in G1/S.
Where [5] appears, read: cell cycle stage: early G1 (4.5 h after nocodazole release).
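Throughout, for melting temperature (median over replicates), in situ: HeLa Kyoto cells synchronized by double thymidine or nocodazole block, proteins quantified by TMT10plex mass spectrometry, three independent biological replicates.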
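Throughout, for solubility change mitosis vs G1/S (difference of NP-40 vs SDS log2 ratios): synchronized HeLa Kyoto cells (double thymidine block for G1/S, nocodazole release for mitosis), protein amounts in NP-40 versus SDS lysates quantified by mass spectrometry, three biological replicates.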
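Throughout, for solubility in G1/S (NP-40 vs SDS abundance): HeLa Kyoto cells arrested at G1/S by double thymidine block, proteins quantified by TMT10plex mass spectrometry in mild NP-40 versus SDS extracts, three biological replicates.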
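Throughout, for thermal stability score vs G1/S (z-score of summed log2 fold changes over temperatures): synchronized HeLa Kyoto cells, proteins quantified by TMT10plex mass spectrometry, three biological replicates, mitosis taken 0.5 h after nocodazole release, G1/S directly after double thymidine block.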

Consider “MLRPAGLWRLCRRPWAARVPAENLGRREVTSGVSPRGSTSPRTLNIFDRDLKRKQKNWAARQPEPTKFDYLKEEVGSRIADRVYDIPRNFPLALDLGCGRGYIAQYLNKETIGKFFQADIAENALKNSSETEIPTVSVLADEEFLPFKENTFDLVVSSLSLHWVNDLPRALEQIHYILKPDGVFIGAMFGGDTLYELRCSLQLAETEREGGFSPHISPFTAVNDLGHLLGRAGFNTLTVDTDEIQVNYPGMFELMEDLQGMGESNCAWNRKALLHRDTMLAAAAVYREMYRNEDGSVPATYQIYYMIGWKYHESQARPAERGSATVSFGELGKINNLMPPGKKSQ [NDUFAF5]”, for which the “solubility in G1/S (log2)” value in data set [1] was found to be 0.329. For the same sequence, the figures for the melting temperature in data set [2] (cell cycle stage: G1/S) and in data set [2] (cell cycle stage: mitosis) were 53.5 °C and 53.4 °C, respectively. The “solubility change mitosis (log2)” value in data set [3] was -0.0552. For the same sequence, the thermal stability score was determined as 0.357 in data set [4] (setting [5]) and 0.191 in data set [4] (cell cycle stage: mitosis).

Take “MAKMEVKTSLLDNMIGVGDMVLLEPLNEETFINNLKKRFDHSEIYTYIGSVVISVNPYRSLPIYSPEKVEEYRNRNFYELSPHIFALSDEAYRSLRDQDKDQCILITGESGAGKTEASKLVMSYVAAVCGKGAEVNQVKEQLLQSNPVLEAFGNAKTVRNDNSSRFGKYMDIEFDFKGDPLGGVISNYLLEKSRVVKQPRGERNFHVFYQLLSGASEELLNKLKLERDFSRYNYLSLDSAKVNGVDDAANFRTVRNAMQIVGFMDHEAESVLAVVAAVLKLGNIEFKPESRVNGLDESKIKDKNELKEICELTGIDQSVLERAFSFRTVEAKQEKVSTTLNVAQAYYARDALAKNLYSRLFSWLVNRINESIKAQTKVRKKVMGVLDIYGFEIFEDNSFEQFIINYCNEKLQQIFIELTLKEEQEEYIREDIEWTHIDYFNNAIICDLIENNTNGILAMLDEECLRPGTVTDETFLEKLNQVCATHQHFESRMSKCSRFLNDTSLPHSCFRIQHYAGKVLYQVEGFVDKNNDLLYRDLSQAMWKASHALIKSLFPEGNPAKINLKRPPTAGSQFKASVATLMKNLQTKNPNYIRCIKPNDKKAAHIFNEALVCHQIRYLGLLENVRVRRAGYAFRQAYEPCLERYKMLCKQTWPHWKGPARSGVEVLFNELEIPVEEYSFGRSKIFIRNPRTLFKLEDLRKQRLEDLATLIQKIYRGWKCRTHFLLMKKSQIVIAAWYRRYAQQKRYQQTKSSALVIQSYIRGWKARKILRELKHQKRCKEAVTTIAAYWHGTQARRELRRLKEEARNKHAIAVIWAYWLGSKARRELKRLKEEARRKHAVAVIWAYWLGLKVRREYRKFFRANAGKKIYEFTLQRIVQKYFLEMKNKMPSLSPIDKNWPSRPYLFLDSTHKELKRIFHLWRCKKYRDQFTDQQKLIYEEKLEASELFKDKKALYPSSVGQPFQGAYLEINKNPKYKKLKDAIEEKIIIAEVVNKINRANGKSTSRIFLLTNNNLLLADQKSGQIKSEVPLVDVTKVSMSSQNDGFFAVHLKEGSEAASKGDFLFSSDHLIEMATKLYRTTLSQTKQKLNIEISDEFLVQFRQDKVCVKFIQGNQKNGSVPTCKRKNNRLLEVAVP [MYO1B]”: the “solubility in G1/S (log2)” value in data set [1] is -0.528. The melting temperature in data set [2] (cell cycle stage: G1/S) was 50.5 °C; in data set [2] (cell cycle stage: mitosis), 50.1 °C. The “solubility change mitosis (log2)” value in data set [3] was -0.0354. Besides, the thermal stability score in data set [4] (setting [5]) is -0.836; in data set [4] (cell cycle stage: mitosis), -0.507.

Consider “MAATLDLKSKEEKDAELDKRIEALRRKNEALIRRYQEIEEDRKKAELEGVAVTAPRKGRSVEKENVAVESEKNLGPSRRSPGTPRPPGASKGGRTPPQQGGRAGMGRASRSWEGSPGEQPRGGGAGGRGRRGRGRGSPHLSGAGDTSISDRKSKEWEERRRQNIEKMNEEMEKIAEYERNQREGVLEPNPVRNFLDDPRRRSGPLEESERDRREESRRHGRNWGGPDFERVRCGLEHERQGRRAGLGSAGDMTLSMTGRERSEYLRWKQEREKIDQERLQRHRKPTGQWRREWDAEKTDGMFKDGPVPAHEPSHRYDDQAWARPPKPPTFGEFLSQHKAEASSRRRRKSSRPQAKAAPRAYSDHDDRWETKEGAASPAPETPQPTSPETSPKETPMQPPEIPAPAHRPPEDEGEENEGEEDEEWEDISEDEEEEEIEVEEGDEEEPAQDHQAPEAAPTGIPCSEQAHGVPFSPEEPLLEPQAPGTPSSPFSPPSGHQPVSDWGEEVELNSPRTTHLAGALSPGEAWPFESV [CCDC9]”, for which, in data set [1], the “solubility in G1/S (log2)” value was -0.239. Moreover, the melting temperature in data set [2] (cell cycle stage: G1/S) and in data set [2] (cell cycle stage: mitosis) was 56.3 °C in each case. Besides, the “solubility change mitosis (log2)” value in data set [3] came out at 0.231. The thermal stability score in data set [4] (setting [5]) came out at 3.28; in data set [4] (cell cycle stage: mitosis), 2.57.

Turning to “MSMLKPSGLKAPTKILKPGSTALKTPTAVVAPVEKTISSEKASSTPSSETQEEFVDDFRVGERVWVNGNKPGFIQFLGETQFAPGQWAGIVLDEPIGKNDGSVAGVRYFQCEPLKGIFTRPSKLTRKVQAEDEANGLQTTPASRATSPLCTSTASMVSSSPSTPSNIPQKPSQPAAKEPSATPPISNLTKTASESISNLSEAGSIKKGERELKIGDRVLVGGTKAGVVRFLGETDFAKGEWCGVELDEPLGKNDGAVAGTRYFQCQPKYGLFAPVHKVTKIGFPSTTPAKAKANAVRRVMATTSASLKRSPSASSLSSMSSVASSVSSRPSRTGLLTETSSRYARKISGTTALQEALKEKQQHIEQLLAERDLERAEVAKATSHVGEIEQELALARDGHDQHVLELEAKMDQLRTMVEAADREKVELLNQLEEEKRKVEDLQFRVEEESITKGDLEQKSQISEDPENTQTKLEHARIKELEQSLLFEKTKADKLQRELEDTRVATVSEKSRIMELEKDLALRVQEVAELRRRLESNKPAGDVDMSLSLLQEISSLQEKLEVTRTDHQREITSLKEHFGAREETHQKEIKALYTATEKLSKENESLKSKLEHANKENSDVIALWKSKLETAIASHQQAMEELKVSFSKGLGTETAEFAELKTQIEKMRLDYQHEIENLQNQQDSERAAHAKEMEALRAKLMKVIKEKENSLEAIRSKLDKAEDQHLVEMEDTLNKLQEAEIKVKELEVLQAKCNEQTKVIDNFTSQLKATEEKLLDLDALRKASSEGKSEMKKLRQQLEAAEKQIKHLEIEKNAESSKASSITRELQGRELKLTNLQENLSEVSQVKETLEKELQILKEKFAEASEEAVSVQRSMQETVNKLHQKEEQFNMLSSDLEKLRENLADMEAKFREKDEREEQLIKAKEKLENDIAEIMKMSGDNSSQLTKMNDELRLKERDVEELQLKLTKANENASFLQKSIEDMTVKAEQSQQEAAKKHEEEKKELERKLSDLEKKMETSHNQCQELKARYERATSETKTKHEEILQNLQKTLLDTEDKLKGAREENSGLLQELEELRKQADKAKAAQTAEDAMQIMEQMTKEKTETLASLEDTKQTNAKLQNELDTLKENNLKNVEELNKSKELLTVENQKMEEFRKEIETLKQAAAQKSQQLSALQEENVKLAEELGRSRDEVTSHQKLEEERSVLNNQLLEMKKRESKFIKDADEEKASLQKSISITSALLTEKDAELEKLRNEVTVLRGENASAKSLHSVVQTLESDKVKLELKVKNLELQLKENKRQLSSSSGNTDTQADEDERAQESQIDFLNSVIVDLQRKNQDLKMKVEMMSEAALNGNGDDLNNYDSDDQEKQSKKKPRLFCDICDCFDLHDTEDCPTQAQMSEDPPHSTHHGSRGEERPYCEICEMFGHWATNCNDDETF [CLIP1]”, the “solubility in G1/S (log2)” value in data set [1] turned out to be 0.37. The melting temperature in data set [2] (cell cycle stage: G1/S) was 54.7 °C; in data set [2] (cell cycle stage: mitosis), 54.2 °C. Also, the “solubility change mitosis (log2)” value in data set [3] was -0.0152. The thermal stability score in data set [4] (setting [5]) is -1.53; in data set [4] (cell cycle stage: mitosis), -1.75.
